In the supplement of paper PMC9170038:

Tested on: K4 kissing-loop RNA reporter
Assay: apparent KD of K4 kissing-loop reporter; higher = weaker reporter binding
Conditions: Eterna round: R107
Description: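 RNA-MaP round R107: designed RNA switches with theophylline, tryptophan, arginine or FMN aptamers are transcribed on-chip within common flanks. They are titrated with a labelled K4 kissing-loop RNA reporter in RNA-MaP buffer (100 mM Tris pH 7.5, 80 mM KCl, 4 mM MgCl2), without ligand or with the indicated ligand. Median apparent KD per design.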

[1] = input ligand: theophylline 20 uM
[2] = input ligand: tryptophan 2.4 mM
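Note: bound reporter read as fluorescence of individual clusters on recovered sequencing chips by microscopy, with normalized cluster intensities fitted with a binding model.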

Row | Sequence | apparent KD of K4 kissing-loop reporter (input ligand: FMN 200 uM) [nM] | apparent KD of K4 kissing-loop reporter (input ligand: arginine 13.2 mM) [nM] | apparent KD of K4 kissing-loop reporter (input ligand: none) [nM] | apparent KD of K4 kissing-loop reporter [1] [nM] | apparent KD of K4 kissing-loop reporter [2] [nM]
1 | UGACUACAUCCUAGUGAUGUUUAGGAUAUGUAGGAUAUGCUGAUAAGCAGAAGGACAGAAGGAAGUGAUGUUCUUAAAGUAGUCU [FmnAX 29 #DoubleAptamer #Double K4 #SwitchBubble #StaticStem] | 644 | 783 | 1050 | 760 | 802
2 | UGACUGGACUGAAGGAGCGAGCGAGACAAAGUCUCGGAAAUUCAGUGAUGUUGAUAUAUAACUCAGGUAGGUCGCAGUCUAGUCU [ArgBS 6 #SwitchBubble #StaticStem] | 350 | 411 | 459 | 363 | 335
3 | UGACUGGACUGAAGGAGCGAGGACGGUCAUAGACCGAAAUCAGUGAUGUUGAAAGAUAAACCUCAGGUAGGUCGCAGUCUAGUCU [ArgBS 1 #SwitchBubble #StaticStem] | 1070 | 918 | 790 | 546 | 1230
4 | UGACUGGACUGAAGGAGCGAGGACGGUCAUAGACCGAAUUCAGUGAUGUUGAAAAUAAAACCUCAGGUAGGUCGCAGUCUAGUCU [ArgBS 3 #SwitchBubble #StaticStem] | 228 | 193 | 219 | 216 | 204
5 | UGACUGGACUGAAGGAGCGCGCGAGACAAAGUCUCGAACUCGUAGUGAUGUUAGGAAAUAACGCAGGUAGGUCGCAGUCUAGUCU | 651 | 417 | 611 | 796 | 512
6 | UGACUGGACUGAAGGAGCGCUAAACUCCUAGUGAUGUUAGGAAAACGAGACAAAGUCUCGAGGCAGGUAGGUCGCAGUCUAGUCU [ArgBS 18 #SwitchBubble #StaticStem] | 123 | 120 | 136 | 128 | 114
7 | UGACUGGACUGAAGGAGCGCUAAACUCCUAGUGAUGUUAGGGAACCGAGACAAAGUCUCGAGGCAGGUAGGUCGCAGUCUAGUCU [FiskerMod 2 - Jieux - Same State - Arginine B] | 295 | 253 | 307 | 359 | 288
8 | UGACUGGACUGAAGGAGCGCUGAACUCCUAGUGAUGUUAGGAAAACGAGACAAAGUCUCGAAGCAGGUAGGUCGCAGUCUAGUCU | 138 | 101 | 112 | 138 | 115
9 | UGACUGGACUGAAGGAGCGGGAAACUCCUAGUGAUGUUAGGAAUACGAGACAAAGUCUCGACCCAGGUAGGUCGCAGUCUAGUCU [ArgBS 17 #SwitchBubble #StaticStem] | 121 | 93.3 | 108 | 116 | 119
10 | UGAGAGUACCGGAUGGAGAAAUUGUAUGAUACCAGAGCAGAUUACCUCCCUUGGCAGCAUGCAUCCUGCUAGUGAUGUUGGCAAC [theeternabot_sameState_KL_Theo_A_48] | 676 | 459 | 741 | 669 | 535
11 | UGAGUUUGAGUGAUGUUCAGGCAUUGGUACGAGGAUAUCGAGGAGUUGAGAAGGCGUACUGCUCAACUUUGUAUGAAUACAUACA [FMN A Ex t2b] | 259 | 73.4 | 106 | 117 | 103
12 | UGAUAAAGCAGUGAUGUUGCAAGAAAUGAUACCAGUUAAGAAGAGAACCCUUGGCAGCAUAAAGUGCGCUCUAAUGAGUGUGCUU [whbob_SS_Theo_A_w50] | 88.8 | 143 | 123 | 179 | 87.6
13 | UGAUACCAGACGGCCGCCACUAGACCAGUCAAAGACUGGAAGUGAUGUUUGAGGAGUGAUGUUCCUAGGACCGGGUCUGGUAUCU [TrypBX 3 #Palindromic #SwitchBubble #StaticStem] | 97.9 | 81.7 | 90.5 | 89 | 41.5
14 | UGAUACCAGACGGCCGCCACUCCCGCAGGUCAAAGACCUGCGAAGAAGGUUCUUUAGUGAUGUUGGAGGACCGGGUCUGGUAUCU [FiskerMod 21 - Jieux - Exclusion - Tryptophan B] | 735 | 312 | 744 | 417 | 523
15 | UGAUACCAGACGGCCGCCACUCCCGUAAGUCAAAGACUUACCAAGAGAAUCGUCCAGUGAUGUUGGAGGACCGGGUCUGGUAUCU [FiskerMod 8 - Jieux - Exclusion - Tryptophan B] | 922 | 845 | 998 | 732 | 682
16 | UGAUACCAGACGGCCGCCACUCCCGUAAGUCAAAGACUUACGAAGAGAGUUAUCCAGUGAUGUUGGAGGACCGGGUCUGGUAUCU [FiskerMod 14 - Jieux - Exclusion - Tryptophan B] | 210 | 199 | 192 | 199 | 261
